Source: US20030229005A1 (BIOZYME, published 2003)
*1 amine or outer side, *2 acyl side, *3 side chain or, on linkers, in order; H or OH if unused. [ ]: non-standard residue; d: D form. The star is where a group is joined. Dnp = O=[N+]([O-])c1ccc(*)c([N+](=O)[O-])c1; C(Me) = CSC[C@H](N[*:1])C(=O)[*:2]

T1: human Gelatinase-A (human, UniProt P08253 110-660, limits assumed)
T1 sequence (looked up): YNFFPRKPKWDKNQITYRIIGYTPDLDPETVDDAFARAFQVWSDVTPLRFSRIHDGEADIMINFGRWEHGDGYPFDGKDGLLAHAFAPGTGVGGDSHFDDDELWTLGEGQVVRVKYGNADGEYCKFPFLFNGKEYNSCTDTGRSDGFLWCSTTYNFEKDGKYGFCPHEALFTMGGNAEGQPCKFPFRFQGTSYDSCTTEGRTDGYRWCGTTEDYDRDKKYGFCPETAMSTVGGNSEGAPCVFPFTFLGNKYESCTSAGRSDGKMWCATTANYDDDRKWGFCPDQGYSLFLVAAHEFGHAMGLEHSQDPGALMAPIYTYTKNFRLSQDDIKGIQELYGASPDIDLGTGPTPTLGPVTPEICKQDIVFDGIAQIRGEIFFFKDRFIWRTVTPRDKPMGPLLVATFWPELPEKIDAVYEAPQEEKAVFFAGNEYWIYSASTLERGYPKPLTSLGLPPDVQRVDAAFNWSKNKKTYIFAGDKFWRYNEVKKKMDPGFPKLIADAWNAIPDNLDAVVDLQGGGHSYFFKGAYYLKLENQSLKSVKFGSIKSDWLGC

T2: collagenase 1 (UniProt P03956 100-469, limits assumed)
T2 sequence (looked up): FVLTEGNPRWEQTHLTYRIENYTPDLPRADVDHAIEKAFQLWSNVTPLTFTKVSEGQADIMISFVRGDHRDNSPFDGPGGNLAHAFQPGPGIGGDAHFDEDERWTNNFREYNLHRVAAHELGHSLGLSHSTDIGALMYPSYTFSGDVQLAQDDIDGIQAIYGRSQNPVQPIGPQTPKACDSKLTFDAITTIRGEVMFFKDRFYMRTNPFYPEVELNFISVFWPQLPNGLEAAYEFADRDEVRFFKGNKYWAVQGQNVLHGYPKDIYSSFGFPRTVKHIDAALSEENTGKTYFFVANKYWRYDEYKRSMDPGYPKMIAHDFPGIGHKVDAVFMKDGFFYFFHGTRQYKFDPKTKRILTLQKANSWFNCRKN


Tests used:
Assay in all cases: cell-based or functional assay
human Gelatinase-A = target: T1, human Gelatinase-A
gelatinase B = gelatinase B (UniProt P14780 107-707, limits assumed)
gelatinase B, sequence (P14780 107-707 limits assumed): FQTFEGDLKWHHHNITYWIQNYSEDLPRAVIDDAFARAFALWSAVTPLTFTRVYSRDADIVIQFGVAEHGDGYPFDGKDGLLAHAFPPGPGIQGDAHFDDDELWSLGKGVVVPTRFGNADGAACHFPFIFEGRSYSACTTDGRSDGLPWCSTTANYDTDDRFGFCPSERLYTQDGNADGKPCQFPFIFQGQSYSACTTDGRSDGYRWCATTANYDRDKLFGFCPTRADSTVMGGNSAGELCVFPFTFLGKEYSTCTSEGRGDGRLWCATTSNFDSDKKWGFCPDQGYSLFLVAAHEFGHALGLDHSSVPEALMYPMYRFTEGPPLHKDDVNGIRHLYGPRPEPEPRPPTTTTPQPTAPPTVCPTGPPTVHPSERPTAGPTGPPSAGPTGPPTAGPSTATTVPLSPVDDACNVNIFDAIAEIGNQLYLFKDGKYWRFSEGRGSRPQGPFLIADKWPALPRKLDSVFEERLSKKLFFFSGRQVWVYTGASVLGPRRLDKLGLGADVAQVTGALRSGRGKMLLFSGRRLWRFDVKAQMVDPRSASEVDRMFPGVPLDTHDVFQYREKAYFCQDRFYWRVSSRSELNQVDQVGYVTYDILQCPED

collagenase 1 = target: T2, collagenase 1
stromelysin 1 = stromelysin 1 (UniProt P08254 100-477, limits assumed)
stromelysin 1, sequence (P08254 100-477 limits assumed): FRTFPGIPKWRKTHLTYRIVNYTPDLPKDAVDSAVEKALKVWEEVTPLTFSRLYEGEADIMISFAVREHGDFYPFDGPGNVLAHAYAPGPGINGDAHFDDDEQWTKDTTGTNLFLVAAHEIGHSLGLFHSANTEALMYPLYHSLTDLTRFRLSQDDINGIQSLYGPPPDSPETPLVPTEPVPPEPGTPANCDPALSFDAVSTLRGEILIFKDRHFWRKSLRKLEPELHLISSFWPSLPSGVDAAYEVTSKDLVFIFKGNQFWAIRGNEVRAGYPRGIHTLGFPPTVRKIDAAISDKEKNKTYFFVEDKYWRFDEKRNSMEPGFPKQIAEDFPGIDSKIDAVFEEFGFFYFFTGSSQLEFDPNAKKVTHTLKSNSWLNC

Binder	Selectivity v. Coll-3 (human Gelatinase-A) [unitless]	Selectivity v. Coll-3 (gelatinase B) [unitless]	Selectivity v. Coll-3 (collagenase 1) [unitless]	Selectivity v. Coll-3 (stromelysin 1) [unitless]	other results
Dnp-DEGPMGLK[C(Me)]YLG-NH2 (SMILES CSCC[C@H](NC(=O)[C@@H]1CCCN1C(=O)CNC(=O)[C@H](CCC(=O)O)NC(=O)[C@H](CC(=O)O)Nc1ccc([N+](=O)[O-])cc1[N+](=O)[O-])C(=O)NCC(=O)N[C@@H](CC(C)C)C(=O)N[C@@H](CCCCN)C(=O)N[C@@H](CSC)C(=O)N[C@@H](Cc1ccc(O)cc1)C(=O)N[C@@H](CC(C)C)C(=O)NCC(N)=O) [Dnp-…(Me)YLG-NH2]	9	4	452	468	–
Dnp-GPVNLHGR[C(Me)]-NH2 (SMILES CSC[C@H](NC(=O)[C@H](CCCNC(=N)N)NC(=O)CNC(=O)[C@H](Cc1c[nH]cn1)NC(=O)[C@H](CC(C)C)NC(=O)[C@H](CC(N)=O)NC(=O)[C@@H](NC(=O)[C@@H]1CCCN1C(=O)CNc1ccc([N+](=O)[O-])cc1[N+](=O)[O-])C(C)C)C(N)=O) [Dnp-…(Me)-NH2]	9	2	2120	510	–
Dnp-GPLGMRG-NH2 (SMILES CSCC[C@H](NC(=O)CNC(=O)[C@H](CC(C)C)NC(=O)[C@@H]1CCCN1C(=O)CNc1ccc([N+](=O)[O-])cc1[N+](=O)[O-])C(=O)N[C@@H](CCCNC(=N)N)C(=O)NCC(N)=O) [Dnp-GPLGMRG-NH2]	–	–	–	–	Selectivity v. Coll-3, + 1:1 Gelatin (human Gelatinase-A): 41 unitless; Selectivity v. Coll-3, + 1:4 Gelatin (human Gelatinase-A): 46 unitless; Selectivity v. Coll-3, + 1:16 Gelatin (human Gelatinase-A): 84 unitless; Selectivity v. Coll-3, + 1:64 Gelatin (human Gelatinase-A): 69 unitless; Selectivity v. Coll-3, + 1:256 Gelatin (human Gelatinase-A): 73 unitless; Selectivity v. Coll-3, + H2O (human Gelatinase-A): 6 unitless; Selectivity v. Coll-3, + 1:1 Gelatin (gelatinase B): 5 unitless; Selectivity v. Coll-3, + 1:4 Gelatin (gelatinase B): 5 unitless; Selectivity v. Coll-3, + 1:16 Gelatin (gelatinase B): 13 unitless; Selectivity v. Coll-3, + 1:64 Gelatin (gelatinase B): 13 unitless; Selectivity v. Coll-3, + 1:256 Gelatin (gelatinase B): 18 unitless; Selectivity v. Coll-3, + H2O (gelatinase B): 2 unitless; Selectivity v. Coll-3, + 1:1 Gelatin (collagenase 1): 91 unitless; Selectivity v. Coll-3, + 1:4 Gelatin (collagenase 1): 96 unitless; Selectivity v. Coll-3, + 1:16 Gelatin (collagenase 1): 215 unitless; Selectivity v. Coll-3, + 1:64 Gelatin (collagenase 1): 236 unitless; Selectivity v. Coll-3, + 1:256 Gelatin (collagenase 1): 378 unitless; Selectivity v. Coll-3, + H2O (collagenase 1): 245 unitless
Dnp-PSGIHL-NH2 (SMILES CC[C@H](C)[C@H](NC(=O)CNC(=O)[C@H](CO)NC(=O)[C@@H]1CCCN1c1ccc([N+](=O)[O-])cc1[N+](=O)[O-])C(=O)N[C@@H](Cc1c[nH]cn1)C(=O)N[C@@H](CC(C)C)C(N)=O) [Dnp-PSGIHL-NH2]	2	2	1320	–	–
Dnp-GPVNLHG[C(Me)]-NH2 (SMILES CSC[C@H](NC(=O)CNC(=O)[C@H](Cc1c[nH]cn1)NC(=O)[C@H](CC(C)C)NC(=O)[C@H](CC(N)=O)NC(=O)[C@@H](NC(=O)[C@@H]1CCCN1C(=O)CNc1ccc([N+](=O)[O-])cc1[N+](=O)[O-])C(C)C)C(N)=O) [Dnp-GPVNLHGC(Me)-NH2]	15	3	1390	770	–
Dnp-GPLSISG-NH2 (SMILES CC[C@H](C)[C@H](NC(=O)[C@H](CO)NC(=O)[C@H](CC(C)C)NC(=O)[C@@H]1CCCN1C(=O)CNc1ccc([N+](=O)[O-])cc1[N+](=O)[O-])C(=O)N[C@@H](CO)C(=O)NCC(N)=O) [Dnp-GPLSISG-NH2]	7	1	11	–	–
Dnp-PINLHG-NH2 (SMILES CC[C@H](C)[C@H](NC(=O)[C@@H]1CCCN1c1ccc([N+](=O)[O-])cc1[N+](=O)[O-])C(=O)N[C@@H](CC(N)=O)C(=O)N[C@@H](CC(C)C)C(=O)N[C@@H](Cc1c[nH]cn1)C(=O)NCC(N)=O) [Dnp-PINLHG-NH2]	9	4	101	824	–
Dnp-GPLQMRG-NH2 (SMILES CSCC[C@H](NC(=O)[C@H](CCC(N)=O)NC(=O)[C@H](CC(C)C)NC(=O)[C@@H]1CCCN1C(=O)CNc1ccc([N+](=O)[O-])cc1[N+](=O)[O-])C(=O)N[C@@H](CCCNC(=N)N)C(=O)NCC(N)=O) [Dnp-GPLQMRG-NH2]	15	1	290	311	–
Dnp-GPFGLKG-NH2 (SMILES CC(C)C[C@H](NC(=O)CNC(=O)[C@H](Cc1ccccc1)NC(=O)[C@@H]1CCCN1C(=O)CNc1ccc([N+](=O)[O-])cc1[N+](=O)[O-])C(=O)N[C@@H](CCCCN)C(=O)NCC(N)=O) [Dnp-GPFGLKG-NH2]	26	3	408	1380	–
Dnp-GPMSYNG-NH2 (SMILES CSCC[C@H](NC(=O)[C@@H]1CCCN1C(=O)CNc1ccc([N+](=O)[O-])cc1[N+](=O)[O-])C(=O)N[C@@H](CO)C(=O)N[C@@H](Cc1ccc(O)cc1)C(=O)N[C@@H](CC(N)=O)C(=O)NCC(N)=O) [Dnp-GPMSYNG-NH2]	5	3	201	–	–
Dnp-GPRPFRG-NH2 (SMILES N=C(N)NCCC[C@H](NC(=O)[C@H](Cc1ccccc1)NC(=O)[C@@H]1CCCN1C(=O)[C@H](CCCNC(=N)N)NC(=O)[C@@H]1CCCN1C(=O)CNc1ccc([N+](=O)[O-])cc1[N+](=O)[O-])C(=O)NCC(N)=O) [Dnp-GPRPFRG-NH2]	9	4	4200	–	–
Dnp-GPHPMRG-NH2 (SMILES CSCC[C@H](NC(=O)[C@@H]1CCCN1C(=O)[C@H](Cc1c[nH]cn1)NC(=O)[C@@H]1CCCN1C(=O)CNc1ccc([N+](=O)[O-])cc1[N+](=O)[O-])C(=O)N[C@@H](CCCNC(=N)N)C(=O)NCC(N)=O) [Dnp-GPHPMRG-NH2]	12	4	526	287	–
Dnp-GPSELKG-NH2 (SMILES CC(C)C[C@H](NC(=O)[C@H](CCC(=O)O)NC(=O)[C@H](CO)NC(=O)[C@@H]1CCCN1C(=O)CNc1ccc([N+](=O)[O-])cc1[N+](=O)[O-])C(=O)N[C@@H](CCCCN)C(=O)NCC(N)=O) [Dnp-GPSELKG-NH2]	7	4	470	831	–
Dnp-V[C(Me)]PKGITS[C(Me)]VFR-NH2 (SMILES CC[C@H](C)[C@H](NC(=O)CNC(=O)[C@H](CCCCN)NC(=O)[C@@H]1CCCN1C(=O)[C@H](CSC)NC(=O)[C@@H](Nc1ccc([N+](=O)[O-])cc1[N+](=O)[O-])C(C)C)C(=O)N[C@H](C(=O)N[C@@H](CO)C(=O)N[C@@H](CSC)C(=O)N[C@H](C(=O)N[C@@H](Cc1ccccc1)C(=O)N[C@@H](CCCNC(=N)N)C(N)=O)C(C)C)[C@@H](C)O) [Dnp-VC(Me)PKGITSC(Me)VFR-NH2]	7	1	215	835	–
Dnp-PLGMRG-NH2 (SMILES CSCC[C@H](NC(=O)CNC(=O)[C@H](CC(C)C)NC(=O)[C@@H]1CCCN1c1ccc([N+](=O)[O-])cc1[N+](=O)[O-])C(=O)N[C@@H](CCCNC(=N)N)C(=O)NCC(N)=O) [Dnp-PLGMRG-NH2]	2	1	73	–	–
Dnp-GPINLHG-NH2 (SMILES CC[C@H](C)[C@H](NC(=O)[C@@H]1CCCN1C(=O)CNc1ccc([N+](=O)[O-])cc1[N+](=O)[O-])C(=O)N[C@@H](CC(N)=O)C(=O)N[C@@H](CC(C)C)C(=O)N[C@@H](Cc1c[nH]cn1)C(=O)NCC(N)=O) [Dnp-GPINLHG-NH2]	28	15	180	1110	–
